T1: GRP20 (Arabidopsis thaliana, UniProt Q7DV38 1-153)
T1 sequence: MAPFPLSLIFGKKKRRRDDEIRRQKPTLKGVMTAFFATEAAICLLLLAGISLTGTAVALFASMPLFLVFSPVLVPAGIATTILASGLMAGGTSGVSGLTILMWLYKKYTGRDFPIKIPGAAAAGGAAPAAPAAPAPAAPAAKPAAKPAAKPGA

T2: GRP20ΔRBD (Arabidopsis thaliana, UniProt Q7DV38 1-153, del92-115)
T2 sequence: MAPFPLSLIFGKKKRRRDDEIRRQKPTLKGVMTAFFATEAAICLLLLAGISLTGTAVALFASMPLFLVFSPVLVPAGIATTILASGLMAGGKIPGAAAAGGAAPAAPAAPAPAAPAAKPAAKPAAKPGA

T3: GRP20 (RBDm) (Arabidopsis thaliana, UniProt Q7DV38 1-153, M102A;W103A;Y105A;K106A;K107A)
T3 sequence: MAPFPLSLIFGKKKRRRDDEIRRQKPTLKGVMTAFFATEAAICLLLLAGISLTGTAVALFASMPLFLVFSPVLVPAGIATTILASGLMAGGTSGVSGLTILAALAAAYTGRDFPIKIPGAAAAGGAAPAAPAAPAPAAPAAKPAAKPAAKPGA

T4: GRP20ΔHDR (Arabidopsis thaliana, UniProt Q7DV38 1-118)
T4 sequence: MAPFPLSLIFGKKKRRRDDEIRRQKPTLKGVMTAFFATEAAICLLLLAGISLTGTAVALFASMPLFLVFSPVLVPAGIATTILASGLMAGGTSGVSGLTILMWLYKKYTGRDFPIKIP


Columns and labels:
Experiment in all cases: EMSA; Probes: 400 fmol RNA, 17 ug protein, 1x binding buffer (Molecular Probes E33075 kit), room temp 30 min, 5% native PAGE, SYBR Green; pre-mRNA: 500 ng RNA in 10 mM HEPES, 150 mM NaCl, 3 mM EDTA, 2 mM DTT, 10% glycerol, 1 mM PMSF, room temp 30 min; pH not stated
Conditions in all cases: protein: recombinant; tags: N-terminal His6-SUMO
GRP20 = molecular target: T1, GRP20
GRP20ΔRBD = molecular target: T2, GRP20ΔRBD
GRP20 (RBDm) = molecular target: T3, GRP20 (RBDm)
GRP20ΔHDR = molecular target: T4, GRP20ΔHDR

Binder | binding result (GRP20) | binding result (GRP20ΔRBD) | binding result (GRP20 (RBDm)) | binding result (GRP20ΔHDR)
AGGAGAAGGCC (ssRNA) [AP1-probe] | binds | – | – | –
GAAGAAGAAGAAG (ssRNA) [P1 (GA-rich consensus ES_C1)] | binds | no binding | no binding | binds
UUGAUUAUGU (ssRNA) [P2 (ES_C2)] | binds | – | – | –
AUAUAUCUUU (ssRNA) [P3 (A3SS)] | binds | – | – | –
AUGAUAAUGCC (ssRNA) [AP1m-probe] | no binding | – | – | –
